Results as given in article PMC2095792 (Nucleic Acids Research, 2007).

B1: Pop4p (natural protein)
chain: MDRTQTFIKDCLFTKCLEDPEKPFNENRFQDTLLLLPTDGGLTSRLQRQQRKSKLNLDNLQKVSQLESADKQLEKRDYQRINKNSKIALREYINNCKKNTKKCLKLAYENKITDKEDLLHYIEEKHPTIYESLPQYVDFVPMYKELWINYIKELLNITKNLKTFNGSLALLKLSMADYNGALLRVTKSKNKTLIGLQGIVIWDSQKFFIMIVKGNIIDEIKCIPKKGTVFQFEIPISDDDDSALRYSILGDRFKYRSVDRAGRKFKSRRCDDMLYYIQN
modifications: 32P-phosphate on the RRASV site (bovine heart kinase), in the untagged radiolabelled form only
B2: Pop1p (natural protein)
chain: MSGSLSRGNGGKKVLNKNQLLKRNRIRNARSIRAEAVAASSTKTGTPSDLSESGSKLNVDQFISSRQFEVKQLQLAMHNSKAASSTRIFQALPRKLRRRTASHNVRRIPKRMRNRALREMRKSDQQDVLKGSSASSRKAHGLNAKQLYKARMSIKLLRLASKSTSMKLSMPPEVTSSNCHVRQKIKTLKRMIKESSTANPNIKLLNNRMGSYDCTGVNELAPIPKGRVKYTKRQKHFAWLPTHIWNAKRSHMMKRWGYQMVWAPTQKCFKLTHRLGGDTCSSDGALCMDSSYIGTIIVKDKSNDSEGDFLKSIIGKLTAERANLRKYREGQVLFQGLIYSFNEENGEDSTKPLGPCDVFWVQKDTAIIRLHPSIYTQVFNILLQHKEKLTVQDCRYSLASVTLKGAKALESLASCLRSTEYSKSFEQFKMVSMITDHNALPQRCTFAFEAIDPRHLAAPKKLNDSQRKTVNSDDILSLHENYPQDEINAVFNELCDPESRTQSYNNQNTLKEISARRYKLLTATPNSINKTTVPFKESDDPSIPLVIIRRLKTRDWIVVLPWFWLLPLWHLLNRIPRMYHIGLRQFQQIQYENKQLYFPDDYPFTQLGYIENSFYKKEASKTKWDRKPMGKRINFEKIKDIHNTKLPAYSGEIGDFFSSDWRFLQILRNGIDYLQRNDKTLELMDSKKTGQFNAQGVRDINCVNDVLEFCKDYEAKTKAMSLSIEENIPVALCKNRKCQFRTPDSISVNSSSFSLTFFPRCIIAVSCTLLERGHPKDNARIYQVPEKDLEHWLQLAKGVYRPNGRKDHDLKIPLPEVHDLIGFITSGTYHLNCGNGMGIGFIDHHAAIRQPTRYVLIRNVGTNTYRLGEWSKISV
modifications: 32P-phosphate on the RRASV site (bovine heart kinase), in the untagged radiolabelled form only
B3: Rpp1p (natural protein)
chain: MLVDLNVPWPQNSYADKVTSQAVNNLIKTLSTLHMLGYTHIAINFTVNHSEKFPNDVKLLNPIDIKRRFGELMDRTGLKLYSRITLIIDDPSKGQSLSKISQAFDIVAALPISEKGLTLSTTNLDIDLLTFQYGSRLPTFLKHKSICSCVNRGVKLEIVYGYALRDVQARRQFVSNVRSVIRSSRSRGIVIGSGAMSPLECRNILGVTSLIKNLGLPSDRCSKAMGDLASLVLLNGRLRNKSHKQTIVTGGGSGNGDDVVNDVQGIDDVQTIKVVKRSMDAEQLGHASKRHKP
modifications: 32P-phosphate on the RRASV site (bovine heart kinase), in the untagged radiolabelled form only
B4: Pop3p (natural protein)
chain: MSGSLKSLDKKIAKRRQVYKPVLDNPFTNEAHMWPRVHDQPLIWQLLQSSIINKLIHIQSKENYPWELYTDFNEIVQYLSGAHGNSDPVCLFVCNKDPDVPLVLLQQIPLLCYMAPMTVKLVQLPKSAMDTFKSVSKYGMLLLRCDDRVDKKFVSQIQKNVDLLQFPWLNAIKYRPTSVKLLKTTVPIVSKKRQK
modifications: 32P-phosphate on the RRASV site (bovine heart kinase), in the untagged radiolabelled form only

Target: the molecule itself
Test: pull-down

Protein | binding result
B1 | binds
B2 | binds
B3 | binds
B4 | binds
